pKd: −log10 of the molar value.
Experiments:
[1] = biological target: phosphorylated Nedd4-2^186–975 (human) (UniProt Q96PU5); test: AUC; sedimentation velocity, 20 °C, 50 mM Tris-HCl pH 8.0, 500 mM NaCl, 1 mM TCEP, 0.01% NP-40; 3 μM pNedd4-2^186–975 alone, 6 μM 14-3-3η alone, mixtures 1:1 and 1:2; 300 nM pNedd4-2^186–975 with 0.06−6 μM 14-3-3η; apparent KD, sw isotherm and Lamm-equation modelling, 14-3-3η dimer + one pNedd4-2
[2] = biological target: phosphorylated Nedd4-2^186–975 (human) (UniProt Q96PU5); test: SEC-SAXS; Superdex 200 Increase 5/150 GL, 20 mM Tris-HCl pH 7.5, 150 mM NaCl, 1 mM TCEP, 3% glycerol, 293.15 K; loaded 2.2 mg/ml Nedd4-2^186–975, 2 mg/ml 14-3-3η, 8.9 mg/ml complex (1:2, 60 μM)

Chain of phosphorylated Nedd4-2^186–975 (human) (Q96PU5 186-975): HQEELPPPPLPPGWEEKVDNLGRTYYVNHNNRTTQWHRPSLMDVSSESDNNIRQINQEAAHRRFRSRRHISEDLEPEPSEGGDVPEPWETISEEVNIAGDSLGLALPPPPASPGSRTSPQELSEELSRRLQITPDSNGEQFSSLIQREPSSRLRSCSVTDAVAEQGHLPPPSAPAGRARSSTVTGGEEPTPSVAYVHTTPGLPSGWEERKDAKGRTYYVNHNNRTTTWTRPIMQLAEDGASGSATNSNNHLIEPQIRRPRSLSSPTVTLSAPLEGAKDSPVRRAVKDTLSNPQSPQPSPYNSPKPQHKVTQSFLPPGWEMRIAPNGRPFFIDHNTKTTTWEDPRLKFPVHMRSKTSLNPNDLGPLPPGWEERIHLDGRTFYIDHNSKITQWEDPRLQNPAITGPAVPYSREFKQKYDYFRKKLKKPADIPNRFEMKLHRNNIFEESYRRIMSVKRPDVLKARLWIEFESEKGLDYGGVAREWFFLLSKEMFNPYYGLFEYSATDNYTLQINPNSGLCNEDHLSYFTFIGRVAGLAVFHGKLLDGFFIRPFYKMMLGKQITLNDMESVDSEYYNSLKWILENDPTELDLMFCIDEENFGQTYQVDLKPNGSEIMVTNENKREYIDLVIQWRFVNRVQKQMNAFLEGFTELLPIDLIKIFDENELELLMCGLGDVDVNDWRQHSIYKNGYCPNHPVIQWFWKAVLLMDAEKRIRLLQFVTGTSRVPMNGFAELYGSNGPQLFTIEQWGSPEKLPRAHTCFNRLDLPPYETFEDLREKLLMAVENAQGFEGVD

pKd [1]: > 7.30
stoichiometry N (14-3-3η protomers per Nedd4-2 protomer) [1]: 2
stoichiometry N (14-3-3η protomers per Nedd4-2 protomer) [2]: 2
Substance: 14-3-3η (from UniProt Q04917 1-246) (natural protein)

— paper PMC8298602, “14-3-3-protein regulates Nedd4-2 by modulating interactions between HECT and WW domains” (Communications Biology, 2021)
